Test results published in PMC12483565, “CBFβ-SMMHC–driven leukemogenesis requires enhanced RUNX1-DNA binding affinity in mice”.

Biological target: RUNX1c-R201Q (human, UniProt Q01196-8 1-480, R201Q)
Assay: EMSA; BLI: 20 mM Tris-HCl pH 8.0, 150 mM KCl, 1 mM EDTA, 1 mM DTT, 0.02% Tween-20, with 800 nM CBFβ or 400 nM CBFβ-SMMHC/mutant, preincubated 37 °C 30 min; EMSA: room temperature 30 min, 4-12% TBE gel, 1x TBE
Settings: protein: ivt; label: IRDye700

RUNX1c-R201Q, sequence (Q01196 other isoform, or with tags, fused parts or gaps R201Q | R201Q R201Q): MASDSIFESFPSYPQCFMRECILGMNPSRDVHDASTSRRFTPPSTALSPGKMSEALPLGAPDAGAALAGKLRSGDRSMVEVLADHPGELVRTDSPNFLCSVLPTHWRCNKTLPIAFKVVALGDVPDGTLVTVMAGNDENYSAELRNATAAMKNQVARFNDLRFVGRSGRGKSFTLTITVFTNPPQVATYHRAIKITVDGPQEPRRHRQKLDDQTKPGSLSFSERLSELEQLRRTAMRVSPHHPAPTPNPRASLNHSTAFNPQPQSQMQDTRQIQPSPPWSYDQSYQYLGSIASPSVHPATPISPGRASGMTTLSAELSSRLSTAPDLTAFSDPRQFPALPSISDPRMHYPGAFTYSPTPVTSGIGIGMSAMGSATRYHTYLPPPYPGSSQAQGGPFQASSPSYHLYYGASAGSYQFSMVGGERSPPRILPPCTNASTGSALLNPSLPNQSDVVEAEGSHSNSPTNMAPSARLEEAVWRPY

B1: CSF1R promoter probe (EMSA) (dsDNA)
DNA 1: CAAACTCTGTGGTTGCCTTG
DNA 2: CAAGGCAACCACAGAGTTTG
  binding result: no binding
